Experiments:
Human soluble IL-6R [1] = molecular target: T1, Human soluble IL-6R (human, UniProt P08887 20-358); test: Biacore T100, IL-6R captured via mAb BN-12
T1 construct: Soluble recombinant form; biotinylated in some assays; also called hIL-6R; human IL-6R
T1 sequence (looked up): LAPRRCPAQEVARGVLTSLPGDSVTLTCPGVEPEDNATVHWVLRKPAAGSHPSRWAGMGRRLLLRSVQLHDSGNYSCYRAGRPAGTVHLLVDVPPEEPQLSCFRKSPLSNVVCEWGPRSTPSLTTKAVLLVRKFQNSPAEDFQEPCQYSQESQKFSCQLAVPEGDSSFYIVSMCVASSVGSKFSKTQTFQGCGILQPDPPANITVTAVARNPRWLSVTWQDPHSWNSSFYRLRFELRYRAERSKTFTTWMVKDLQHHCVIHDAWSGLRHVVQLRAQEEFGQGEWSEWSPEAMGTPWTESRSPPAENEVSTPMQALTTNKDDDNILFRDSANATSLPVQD

Human plasma sIL-6R [2] = molecular target: T2, Human plasma sIL-6R (human, UniProt P08887 20-355, limits assumed); test: plasma potency ELISA, human plasma, normal IL-6 (EC50)
T2 construct: also called plasma-derived human IL-6R
T2 sequence (looked up): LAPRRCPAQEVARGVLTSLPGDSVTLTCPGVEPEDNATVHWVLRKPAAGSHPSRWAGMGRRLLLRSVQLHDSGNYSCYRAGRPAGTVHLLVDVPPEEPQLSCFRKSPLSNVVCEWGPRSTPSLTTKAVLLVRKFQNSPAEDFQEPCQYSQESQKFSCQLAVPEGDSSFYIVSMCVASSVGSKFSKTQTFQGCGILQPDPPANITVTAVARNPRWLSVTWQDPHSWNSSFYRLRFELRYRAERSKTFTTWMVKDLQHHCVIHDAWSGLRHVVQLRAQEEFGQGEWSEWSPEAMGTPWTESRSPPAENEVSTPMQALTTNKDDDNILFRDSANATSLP

[3] = molecular target: T3, Human membrane IL-6R on cells (human, UniProt P08887 20-468); test: cell-based or functional assay
T3 sequence (looked up): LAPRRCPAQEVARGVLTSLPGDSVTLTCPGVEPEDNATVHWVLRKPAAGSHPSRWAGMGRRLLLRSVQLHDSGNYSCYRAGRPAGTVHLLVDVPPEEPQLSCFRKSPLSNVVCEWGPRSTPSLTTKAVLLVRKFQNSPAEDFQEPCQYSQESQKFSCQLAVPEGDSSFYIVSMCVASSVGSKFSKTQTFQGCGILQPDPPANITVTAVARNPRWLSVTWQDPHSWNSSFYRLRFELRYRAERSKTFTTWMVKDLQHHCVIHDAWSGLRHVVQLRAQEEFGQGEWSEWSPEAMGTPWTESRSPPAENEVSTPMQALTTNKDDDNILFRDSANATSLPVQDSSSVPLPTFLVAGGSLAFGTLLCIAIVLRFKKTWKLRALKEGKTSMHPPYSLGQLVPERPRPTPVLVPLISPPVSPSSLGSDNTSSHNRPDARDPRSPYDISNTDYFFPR

[4] = molecular target: T3, Human membrane IL-6R on cells; test: flow cytometry, CHO cells expressing human IL-6R, 4PL fit
Human plasma sIL-6R [5] = molecular target: T2, Human plasma sIL-6R; test: plasma potency ELISA, human plasma, high IL-6 (EC95)
Human plasma sIL-6R [6] = molecular target: T2, Human plasma sIL-6R; test: plasma potency assay, human plasma, 42 nM IL6; blocked ligand IL-6
Protocol: (§1) All 5 affinity matured Nanobodies and the sequence optimized Nanobody were also tested in a plasma potency assay. […] TMB was used as substrate.

Human plasma sIL-6R [7] = molecular target: T2, Human plasma sIL-6R; test: plasma potency assay, human plasma, 2.4 nM IL6; blocked ligand IL-6
Protocol: as §1

[8] = molecular target: T3, Human membrane IL-6R on cells; test: flow cytometry, human PBL, monocytes donor 2
Protocol: The Nanobodies were incubated in EDTA-treated blood from 2 donors and bound Nanobody was detected by flow cytometry. Lymphocytes, monocytes and granulocytes were gated based on FSC/SSC properties (FIG. 40) and bound Nanobodies were detected in the PE channel.

Human soluble IL-6R [9] = molecular target: T1, Human soluble IL-6R; test: ELISA, IL6R20A11 on biotinylated human sIL-6R on neutravidin plate
[10] = molecular target: T3, Human membrane IL-6R on cells; test: cell-based or functional assay; remark: listed apart in the source
Human plasma sIL-6R [11] = molecular target: T2, Human plasma sIL-6R; test: plasma potency ELISA, human plasma
Cyno plasma sIL-6R = molecular target: T4, Cyno plasma sIL-6R (cynomolgus monkey, UniProt A0A2K5WN54 60-396); test: plasma potency ELISA, cyno plasma
T4 construct: also called cynomolgus sIL-6R
T4 sequence: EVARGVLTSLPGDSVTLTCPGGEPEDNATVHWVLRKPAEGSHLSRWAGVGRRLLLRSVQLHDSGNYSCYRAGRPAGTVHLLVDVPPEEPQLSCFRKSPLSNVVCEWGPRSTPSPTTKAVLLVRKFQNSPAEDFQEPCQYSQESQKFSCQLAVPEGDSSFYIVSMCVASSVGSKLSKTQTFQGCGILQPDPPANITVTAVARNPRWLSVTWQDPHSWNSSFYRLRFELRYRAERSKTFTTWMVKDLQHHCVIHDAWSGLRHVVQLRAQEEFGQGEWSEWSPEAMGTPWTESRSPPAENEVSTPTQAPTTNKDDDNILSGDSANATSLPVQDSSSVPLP

Mouse IL-6R = molecular target: T5, Mouse IL-6R (mouse, UniProt P22272 20-364, limits assumed); test: competition ELISA: IL6R20A11 (0.4 nM) pre-incubated with a series of recombinant mouse sIL-6R; free IL6R20A11 captured on biotinylated human sIL-6R on neutravidin
T5 construct: also called mouse sIL-6R
T5 sequence (looked up): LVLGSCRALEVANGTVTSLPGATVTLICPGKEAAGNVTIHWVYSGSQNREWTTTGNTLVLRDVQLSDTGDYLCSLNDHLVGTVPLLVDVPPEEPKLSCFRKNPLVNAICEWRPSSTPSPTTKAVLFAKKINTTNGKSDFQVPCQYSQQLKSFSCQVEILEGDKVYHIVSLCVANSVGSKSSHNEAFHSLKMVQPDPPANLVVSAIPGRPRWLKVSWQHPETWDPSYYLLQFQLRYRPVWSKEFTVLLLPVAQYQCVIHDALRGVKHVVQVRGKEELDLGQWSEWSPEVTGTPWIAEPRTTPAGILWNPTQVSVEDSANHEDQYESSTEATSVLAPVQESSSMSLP

Human soluble IL-6R [12] = molecular target: T1, Human soluble IL-6R; test: Biacore T100

B1: PMP20A11 (VHH)
VHH: EVQLVESGGGLVQPGGSLRLSCAASGSVFKINVMAWYRQAPGKGRELVAGIISGGSTSYADSVKGRFTISRDNAKNTLYLQMNSLRPEDTAVYYCAFITTESDYDLGRRYWGQGTLVTVSS
notes: also called IL6R20A11; IL6R300; not shown: c-myc and (His)6 tags
kon (Human soluble IL-6R [1]): 1e+06 M⁻¹ s⁻¹
IC50 (Human plasma sIL-6R [2]): 0.198 nM
IC50 (nM), TF-1 proliferation at 100 IU/mL IL-6 [3]: 0.283 nM
EC50 [4]: 1.4 nM
IC50 (Human plasma sIL-6R [5]): 0.356 nM
IC50 (read off the curve) (Human plasma sIL-6R [6]): ~0.4 nM
IC50 (Human plasma sIL-6R [7]): 0.09 nM
EC50 [8]: 4.78 nM
EC50 (Human soluble IL-6R [9]): 0.35 nM
IC50 (nM), TF-1 proliferation at 5000 IU/mL IL-6 [10]: 15.2 nM
Ratio (high/low) of IC50 (Human plasma sIL-6R [11]): 1.8
IC50 (Cyno plasma sIL-6R): 0.117 nM
binding result (Mouse IL-6R): no binding (tested: about 200 ng/mL (log conc 2.3))
Kd (Human soluble IL-6R [12]): 0.019 nM
